Square brackets hold non-standard residues; d marks the D form. Primed or numbered codes have the meaning given here. Ends that are not written are not given here. * marks the point of attachment. pY = N[C@@H](Cc1ccc(OP(=O)(O)O)cc1)C(=O)O; Phe(4-Cl) = N[C@@H](Cc1ccc(Cl)cc1)C(=O)O; Phe(3-F) = N[C@@H](Cc1cccc(F)c1)C(=O)O; Pzc(2) = piperazine-2-carboxylic acid; Ala(Pip) = (4-piperidin-1-yl)alanine; Phe(2-F) = N[C@@H](Cc1ccccc1F)C(=O)O; Arg(Me) = CNC(=N)NCCC[C@H](N)C(=O)O; Hyp = O=C(O)[C@@H]1C[C@@H](O)CN1; His(3Me) = 3-methylhistidine; Orn = NCCC[C@H](N)C(=O)O; Aib = CC(C)(N)C(=O)O; Glycolyl = O=C(CO)*; Ahx = NCCCCCC(=O)O; azaGly = NNC(=O)O
target: human OT7T175 (metastin receptor) (human) (UniProt Q969F8); test: cell-based or functional assay
Sequence (Q969F8 whole entry L364H): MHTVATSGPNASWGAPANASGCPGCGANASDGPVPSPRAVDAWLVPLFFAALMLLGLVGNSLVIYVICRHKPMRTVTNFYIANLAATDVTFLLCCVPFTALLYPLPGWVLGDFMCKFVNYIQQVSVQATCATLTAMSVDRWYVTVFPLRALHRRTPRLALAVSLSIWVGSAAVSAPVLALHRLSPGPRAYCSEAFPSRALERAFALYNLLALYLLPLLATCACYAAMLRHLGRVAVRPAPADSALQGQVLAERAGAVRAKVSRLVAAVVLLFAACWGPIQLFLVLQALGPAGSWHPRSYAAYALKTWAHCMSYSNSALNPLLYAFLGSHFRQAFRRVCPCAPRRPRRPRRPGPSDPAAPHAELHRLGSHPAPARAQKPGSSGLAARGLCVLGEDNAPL

Binder	intracellular Ca ion level-increasing activity [specific activity to Metastin (1-54)] (relative to Metastin (1-54))
Ac-[dY]ENT[Phe(4-Cl)][azaGly]L[Arg(Me)]W-NH2 (SMILES CNC(=N)NCCC[C@H](NC(=O)[C@H](CC(C)C)NC(=O)NNC(=O)[C@H](Cc1ccc(Cl)cc1)NC(=O)[C@@H](NC(=O)[C@H](CC(N)=O)NC(=O)[C@H](CCC(=O)O)NC(=O)[C@@H](Cc1ccc(O)cc1)NC(C)=O)[C@@H](C)O)C(=O)N[C@@H](Cc1c[nH]c2ccccc12)C(N)=O) [des(1)-Ac-[D-Tyr2,Glu3,Thr5,Phe(4Cl)6,AzaGly7,Arg(Me)9,Trp10]MS10]	1.9
Ac-[dY]GNT[Phe(4-Cl)][azaGly]L[Arg(Me)]W-NH2 (SMILES CNC(=N)NCCC[C@H](NC(=O)[C@H](CC(C)C)NC(=O)NNC(=O)[C@H](Cc1ccc(Cl)cc1)NC(=O)[C@@H](NC(=O)[C@H](CC(N)=O)NC(=O)CNC(=O)[C@@H](Cc1ccc(O)cc1)NC(C)=O)[C@@H](C)O)C(=O)N[C@@H](Cc1c[nH]c2ccccc12)C(N)=O) [des(1)-Ac-[D-Tyr2,Gly3,Thr5,Phe(4Cl)6,AzaGly7,Arg(Me)9,Trp10]MS10]	1.5
Ac-[dY][Aib]NT[Phe(4-Cl)][azaGly]L[Arg(Me)]W-NH2 (SMILES CNC(=N)NCCC[C@H](NC(=O)[C@H](CC(C)C)NC(=O)NNC(=O)[C@H](Cc1ccc(Cl)cc1)NC(=O)[C@@H](NC(=O)[C@H](CC(N)=O)NC(=O)C(C)(C)NC(=O)[C@@H](Cc1ccc(O)cc1)NC(C)=O)[C@@H](C)O)C(=O)N[C@@H](Cc1c[nH]c2ccccc12)C(N)=O) [des(1)-Ac-[D-Tyr2,Aib3,Thr5,Phe(4Cl)6,AzaGly7,Arg(Me)9,Trp10]MS10]	2.6
[Ahx]NTF[azaGly]L[Arg(Me)]W-NH2 (N-terminus assumed; SMILES CNC(=N)NCCC[C@H](NC(=O)[C@H](CC(C)C)NC(=O)NNC(=O)[C@H](Cc1ccccc1)NC(=O)[C@@H](NC(=O)[C@H](CC(N)=O)NC(=O)CCCCCN)[C@@H](C)O)C(=O)N[C@@H](Cc1c[nH]c2ccccc12)C(N)=O) [des(1-2)-[Acp3,Thr5,AzaGly7,Arg(Me)9,Trp10]MS10]	8.9
Ac-[dY][His(3Me)]NTF[azaGly]L[Arg(Me)]W-NH2 [des(1)-Ac-[D-Tyr2,His(3Me)3,Thr5,AzaGly7,Arg(Me)9,Trp10]MS10]	1.1
Ac-[dY][Ala(Pip)]NTF[azaGly]L[Arg(Me)]W-NH2 (also: position 2 DL, both configurations) [des(1)-Ac-[D-Tyr2,DL-Ala(Pip)3,Thr5,AzaGly7,Arg(Me)9,Trp10]MS10]	2
Ac-[Ahx]NTF[azaGly]L[Arg(Me)]W-NH2 (SMILES CNC(=N)NCCC[C@H](NC(=O)[C@H](CC(C)C)NC(=O)NNC(=O)[C@H](Cc1ccccc1)NC(=O)[C@@H](NC(=O)[C@H](CC(N)=O)NC(=O)CCCCCNC(C)=O)[C@@H](C)O)C(=O)N[C@@H](Cc1c[nH]c2ccccc12)C(N)=O) [des(1-2)-Ac-[Acp3,Thr5,AzaGly7,Arg(Me)9,Trp10]MS10]	3.7
Glycolyl-[dY][Hyp]NTF[azaGly]L[Arg(Me)]W-NH2 (SMILES CNC(=N)NCCC[C@H](NC(=O)[C@H](CC(C)C)NC(=O)NNC(=O)[C@H](Cc1ccccc1)NC(=O)[C@@H](NC(=O)[C@H](CC(N)=O)NC(=O)[C@@H]1C[C@@H](O)CN1C(=O)[C@@H](Cc1ccc(O)cc1)NC(=O)CO)[C@@H](C)O)C(=O)N[C@@H](Cc1c[nH]c2ccccc12)C(N)=O) [des(1)-Glycoloyl-[D-Tyr2,Hyp3,Thr5,AzaGly7,Arg(Me)9,Trp10]MS10]	1.5
Ac-[dY]ENT[Phe(3-F)][azaGly]L[Arg(Me)]W-NH2 (SMILES CNC(=N)NCCC[C@H](NC(=O)[C@H](CC(C)C)NC(=O)NNC(=O)[C@H](Cc1cccc(F)c1)NC(=O)[C@@H](NC(=O)[C@H](CC(N)=O)NC(=O)[C@H](CCC(=O)O)NC(=O)[C@@H](Cc1ccc(O)cc1)NC(C)=O)[C@@H](C)O)C(=O)N[C@@H](Cc1c[nH]c2ccccc12)C(N)=O) [des(1)-Ac-[D-Tyr2,Glu3,Thr5,Phe(3F)6,AzaGly7,Arg(Me)9,Trp10]MS10]	2.7

Continued, values first:

intracellular Ca ion level-increasing activity [specific activity to Metastin (1-54)] (relative to Metastin (1-54))	Binder
6.4	Ac-[dY][Hyp]NT[Phe(2-F)][azaGly]L[Arg(Me)]W-NH2 (SMILES CNC(=N)NCCC[C@H](NC(=O)[C@H](CC(C)C)NC(=O)NNC(=O)[C@H](Cc1ccccc1F)NC(=O)[C@@H](NC(=O)[C@H](CC(N)=O)NC(=O)[C@@H]1C[C@@H](O)CN1C(=O)[C@@H](Cc1ccc(O)cc1)NC(C)=O)[C@@H](C)O)C(=O)N[C@@H](Cc1c[nH]c2ccccc12)C(N)=O) [des(1)-Ac-[D-Tyr2,Hyp3,Thr5,Phe(2F)6,AzaGly7,Arg(Me)9,Trp10]MS10]
0.6	Ac-[dY]WNT[Phe(4-Cl)][azaGly]L[Arg(Me)]W-NH2 (SMILES CNC(=N)NCCC[C@H](NC(=O)[C@H](CC(C)C)NC(=O)NNC(=O)[C@H](Cc1ccc(Cl)cc1)NC(=O)[C@@H](NC(=O)[C@H](CC(N)=O)NC(=O)[C@H](Cc1c[nH]c2ccccc12)NC(=O)[C@@H](Cc1ccc(O)cc1)NC(C)=O)[C@@H](C)O)C(=O)N[C@@H](Cc1c[nH]c2ccccc12)C(N)=O) [des(1)-Ac-[D-Tyr2,Trp3,Thr5,Phe(4Cl)6,AzaGly7,Arg(Me)9,Trp10]MS10]
1.7	Ac-[dY][Pzc(2)]NTF[azaGly]L[Arg(Me)]W-NH2 [des(1)-Ac-[D-Tyr2,Pzc(2)3,Thr5,AzaGly7,Arg(Me)9,Trp10]MS10]
1.8	Ac-[dY]KNT[Phe(4-Cl)][azaGly]L[Arg(Me)]W-NH2 (SMILES CNC(=N)NCCC[C@H](NC(=O)[C@H](CC(C)C)NC(=O)NNC(=O)[C@H](Cc1ccc(Cl)cc1)NC(=O)[C@@H](NC(=O)[C@H](CC(N)=O)NC(=O)[C@H](CCCCN)NC(=O)[C@@H](Cc1ccc(O)cc1)NC(C)=O)[C@@H](C)O)C(=O)N[C@@H](Cc1c[nH]c2ccccc12)C(N)=O) [des(1)-Ac-[D-Tyr2,Lys3,Thr5,Phe(4Cl)6,AzaGly7,Arg(Me)9,Trp10]MS10]
1.3	Ac-[dY][pY]NTF[azaGly]L[Arg(Me)]W-NH2 (SMILES CNC(=N)NCCC[C@H](NC(=O)[C@H](CC(C)C)NC(=O)NNC(=O)[C@H](Cc1ccccc1)NC(=O)[C@@H](NC(=O)[C@H](CC(N)=O)NC(=O)[C@H](Cc1ccc(OP(=O)(O)O)cc1)NC(=O)[C@@H](Cc1ccc(O)cc1)NC(C)=O)[C@@H](C)O)C(=O)N[C@@H](Cc1c[nH]c2ccccc12)C(N)=O) [des(1)-Ac-[D-Tyr2,Tyr(PO3H2)3,Thr5,AzaGly7,Arg(Me)9,Trp10]MS10]
1.5	Ac-[dY][Hyp]NT[Phe(4-Cl)][azaGly]L[Arg(Me)]W-NH2 (SMILES CNC(=N)NCCC[C@H](NC(=O)[C@H](CC(C)C)NC(=O)NNC(=O)[C@H](Cc1ccc(Cl)cc1)NC(=O)[C@@H](NC(=O)[C@H](CC(N)=O)NC(=O)[C@@H]1C[C@@H](O)CN1C(=O)[C@@H](Cc1ccc(O)cc1)NC(C)=O)[C@@H](C)O)C(=O)N[C@@H](Cc1c[nH]c2ccccc12)C(N)=O) [des(1)-Ac-[D-Tyr2,Hyp3,Thr5,Phe(4Cl)6,AzaGly7,Arg(Me)9,Trp10]MS10]
2.6	Ac-[dY][Hyp]NT[Phe(3-F)][azaGly]L[Arg(Me)]W-NH2 (SMILES CNC(=N)NCCC[C@H](NC(=O)[C@H](CC(C)C)NC(=O)NNC(=O)[C@H](Cc1cccc(F)c1)NC(=O)[C@@H](NC(=O)[C@H](CC(N)=O)NC(=O)[C@@H]1C[C@@H](O)CN1C(=O)[C@@H](Cc1ccc(O)cc1)NC(C)=O)[C@@H](C)O)C(=O)N[C@@H](Cc1c[nH]c2ccccc12)C(N)=O) [des(1)-Ac-[D-Tyr2,Hyp3,Thr5,Phe(3F)6,AzaGly7,Arg(Me)9,Trp10]MS10]
1.9	Ac-[dY][Orn]NTF[azaGly]L[Arg(Me)]W-NH2 (SMILES CNC(=N)NCCC[C@H](NC(=O)[C@H](CC(C)C)NC(=O)NNC(=O)[C@H](Cc1ccccc1)NC(=O)[C@@H](NC(=O)[C@H](CC(N)=O)NC(=O)[C@H](CCCN)NC(=O)[C@@H](Cc1ccc(O)cc1)NC(C)=O)[C@@H](C)O)C(=O)N[C@@H](Cc1c[nH]c2ccccc12)C(N)=O) [des(1)-Ac-[D-Tyr2,Orn3,Thr5,AzaGly7,Arg(Me)9,Trp10]MS10]
1.3	Ac-[dY]TNTF[azaGly]L[Arg(Me)]W-NH2 (SMILES CNC(=N)NCCC[C@H](NC(=O)[C@H](CC(C)C)NC(=O)NNC(=O)[C@H](Cc1ccccc1)NC(=O)[C@@H](NC(=O)[C@H](CC(N)=O)NC(=O)[C@@H](NC(=O)[C@@H](Cc1ccc(O)cc1)NC(C)=O)[C@@H](C)O)[C@@H](C)O)C(=O)N[C@@H](Cc1c[nH]c2ccccc12)C(N)=O) [des(1)-Ac-[D-Tyr2,Thr3,Thr5,AzaGly7,Arg(Me)9,Trp10]MS10]
1.5	Ac-[dY]WNT[Phe(2-F)][azaGly]L[Arg(Me)]W-NH2 (SMILES CNC(=N)NCCC[C@H](NC(=O)[C@H](CC(C)C)NC(=O)NNC(=O)[C@H](Cc1ccccc1F)NC(=O)[C@@H](NC(=O)[C@H](CC(N)=O)NC(=O)[C@H](Cc1c[nH]c2ccccc12)NC(=O)[C@@H](Cc1ccc(O)cc1)NC(C)=O)[C@@H](C)O)C(=O)N[C@@H](Cc1c[nH]c2ccccc12)C(N)=O) [des(1)-Ac-[D-Tyr2,Trp3,Thr5,Phe(2F)6,AzaGly7,Arg(Me)9,Trp10]MS10]
0.2	Ac-[dY]WNT[Phe(3-F)][azaGly]L[Arg(Me)]W-NH2 (SMILES CNC(=N)NCCC[C@H](NC(=O)[C@H](CC(C)C)NC(=O)NNC(=O)[C@H](Cc1cccc(F)c1)NC(=O)[C@@H](NC(=O)[C@H](CC(N)=O)NC(=O)[C@H](Cc1c[nH]c2ccccc12)NC(=O)[C@@H](Cc1ccc(O)cc1)NC(C)=O)[C@@H](C)O)C(=O)N[C@@H](Cc1c[nH]c2ccccc12)C(N)=O) [des(1)-Ac-[D-Tyr2,Trp3,Thr5,Phe(3F)6,AzaGly7,Arg(Me)9,Trp10]MS10]
